Reference: patent US20050054023A1 (BOARD OF SUPERVISORS OF LOUISIANA STATE UNIVERSITY AND …, published 2005)

B1: MBPtide (Thr97) … (peptide)
peptide: APRTPGGR
B2: rat TH-Ser31 peptide KQAEAVTSPR (peptide)
peptide: KQAEAVTSPR
B3: type 1 human TH-Ser31 peptide EAIMSPRFK (peptide)
peptide: EAIMSPRFK
B4: type 1 human TH-Ser31 peptide YQAEAIMSPRFIGRRQ (peptide)
peptide: YQAEAIMSPRFIGRRQ
B5: ERKtide (peptide)
peptide: ATGPLSPFGRR

Molecular target: extracellular signal-regulated protein kinase 2 (purified, recombinant, activated ERK2)
Sequence (P28482 2-360): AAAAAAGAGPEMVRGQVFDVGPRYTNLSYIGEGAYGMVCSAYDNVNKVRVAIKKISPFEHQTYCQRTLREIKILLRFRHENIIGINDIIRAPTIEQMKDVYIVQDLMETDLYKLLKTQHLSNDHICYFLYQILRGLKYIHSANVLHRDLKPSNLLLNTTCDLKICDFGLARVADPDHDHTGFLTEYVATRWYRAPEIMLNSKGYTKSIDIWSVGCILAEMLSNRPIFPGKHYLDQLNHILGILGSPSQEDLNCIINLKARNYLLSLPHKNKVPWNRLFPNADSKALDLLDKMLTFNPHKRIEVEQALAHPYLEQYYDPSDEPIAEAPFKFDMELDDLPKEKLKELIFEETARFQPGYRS
Experiment: cell-based or functional assay

| Binder | V/K |
| --- | --- |
| B1 | 23 |
| B2 | 5 |
| B3 | 28 |
| B4 | 80 |
| B5 | 136 |
